Legend:
Abz-VDVADAA-Dap (Dnp) = biological target: T1, Abz-VDVADAA-Dap (Dnp)
T1 chain: VDVADAA

Abz-VDVADDA-Dap (Dnp) = biological target: T2, Abz-VDVADDA-Dap (Dnp)
T2 chain: VDVADDA

Abz-VDVADEA-Dap (Dnp) = biological target: T3, Abz-VDVADEA-Dap (Dnp)
T3 chain: VDVADEA

Abz-VDVADFA-Dap (Dnp) = biological target: T4, Abz-VDVADFA-Dap (Dnp)
T4 chain: VDVADFA

Abz-VDVADGA-Dap (Dnp) = biological target: T5, Abz-VDVADGA-Dap (Dnp)
T5 chain: VDVADGA

Abz-VDVADHA-Dap (Dnp) = biological target: T6, Abz-VDVADHA-Dap (Dnp)
T6 chain: VDVADHA

Abz-VDVADIA-Dap (Dnp) = biological target: T7, Abz-VDVADIA-Dap (Dnp)
T7 chain: VDVADIA

Abz-VDVADKA-Dap (Dnp) = biological target: T8, Abz-VDVADKA-Dap (Dnp)
T8 chain: VDVADKA

Abz-VDVADLA-Dap (Dnp) = biological target: T9, Abz-VDVADLA-Dap (Dnp)
T9 chain: VDVADLA

Abz-VDVADMA-Dap (Dnp) = biological target: T10, Abz-VDVADMA-Dap (Dnp)
T10 chain: VDVADMA

Abz-VDVADNA-Dap (Dnp) = biological target: T11, Abz-VDVADNA-Dap (Dnp)
T11 chain: VDVADNA

Abz-VDVADPA-Dap (Dnp) = biological target: T12, Abz-VDVADPA-Dap (Dnp)
T12 chain: VDVADPA

Abz-VDVADQA-Dap (Dnp) = biological target: T13, Abz-VDVADQA-Dap (Dnp)
T13 chain: VDVADQA

Abz-VDVADRA-Dap (Dnp) = biological target: T14, Abz-VDVADRA-Dap (Dnp)
T14 chain: VDVADRA

Abz-VDVADSA-Dap (Dnp) = biological target: T15, Abz-VDVADSA-Dap (Dnp)
T15 chain: VDVADSA

Abz-VDVADTA-Dap (Dnp) = biological target: T16, Abz-VDVADTA-Dap (Dnp)
T16 chain: VDVADTA

Abz-VDVADVA-Dap (Dnp) = biological target: T17, Abz-VDVADVA-Dap (Dnp)
T17 chain: VDVADVA

Abz-VDVADWA-Dap (Dnp) = biological target: T18, Abz-VDVADWA-Dap (Dnp)
T18 chain: VDVADWA

Abz-VDVADYA-Dap (Dnp) = biological target: T19, Abz-VDVADYA-Dap (Dnp)
T19 chain: VDVADYA

[1] = biological target: T7AC_6H_GSGSGSG_VDVAD-hFGF2

B1: T7AC_6H_mS9ProD (protein)
chain: MLEDPERNKERKEAELQAQTAEQHHHHHHGKNHAGSPGCEESAAGKEKLPKMRLPTRSDMICGYACLKGTAAMRNTKRGSWYIEALAQVFSERACDMHVADMLVKVNALIKDREGYAPGTEFHRCKVMSEYCSTLCRHLYLFPGHPPTGSGPVCLQVKPCTPEFYQTHFQLAYRLQSRPRGLALVLSNVHFTDEKELEFRSGGDVDHSTLVTLFKLLGYDVHVLCDQTAQEMQEKLQNFAQLPAHRGTDSCIVALLSHGVEGAIYGVDGKLLQLQEVFQLFDNANCPSLQNKPKMFFIQACRGEETDRGVDQQD
KM (Abz-VDVADAA-Dap (Dnp)): 100 µM
KM (Abz-VDVADDA-Dap (Dnp)): 190 µM
KM (Abz-VDVADEA-Dap (Dnp)): 160 µM
KM (Abz-VDVADFA-Dap (Dnp)): 120 µM
KM (Abz-VDVADGA-Dap (Dnp)): 65 µM
KM (Abz-VDVADHA-Dap (Dnp)): 170 µM
KM (Abz-VDVADIA-Dap (Dnp)): 110 µM
KM (Abz-VDVADKA-Dap (Dnp)): 79 µM
KM (Abz-VDVADLA-Dap (Dnp)): 400 µM
KM (Abz-VDVADMA-Dap (Dnp)): 480 µM
KM (Abz-VDVADNA-Dap (Dnp)): 130 µM
KM (Abz-VDVADPA-Dap (Dnp)): 100 µM
KM (Abz-VDVADQA-Dap (Dnp)): 120 µM
KM (Abz-VDVADRA-Dap (Dnp)): 47 µM
KM (Abz-VDVADSA-Dap (Dnp)): 180 µM
KM (Abz-VDVADTA-Dap (Dnp)): 120 µM
KM (Abz-VDVADVA-Dap (Dnp)): 100 µM
KM (Abz-VDVADWA-Dap (Dnp)): 53 µM
KM (Abz-VDVADYA-Dap (Dnp)): 900 µM
KM (T7AC-6H-GSG-VDVAD-hFGF-2): 329 µM
KM (T7AC-6H-VDVAD-hFGF2): 529 µM
KM [1]: 252 µM
KM (T7AC_6H_GSG_VDSAD-hFGF2): 865 µM
